± gives the standard error. For some of these results: This sample holds only a part of the variants without activity.
B1: glmS ribozyme (parent)
chain: AUAAAAGCGCCAGAACUACAGAAAUGUAGUUGACGAGGAGGAGGUUUAUCGAAUUUUCGGCGGAUGCCUCCAAA

Legend:
Conditions in all cases: with glucosamine-6-phosphate
glucosamine-6-phosphate [1] = variants of: B1; assay: kcat; higher = faster cleavage; RNA array
In short: (§1)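 Tracking of barcoded ribozyme variants used a hybridised Cy3 probe at 37 °C, after in situ transcription by E. coli RNA polymerase on sequenced MiSeq chips. The flowed solution held 40 μM to 10 mM glucosamine-6-phosphate in HEPES/KCl/Mg(OAc)2 buffer, and imaging ran over ~14 h. kobs was taken from exponential decay fits of normalised per-tile medians, and kcat and KM from weighted Michaelis–Menten fits.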

glucosamine-6-phosphate [2] = variants of: B1; assay: KM; higher = weaker cofactor use; RNA array
In short: as §1

glucosamine-6-phosphate [3] = variants of: B1; assay: self-cleavage kobs at 640 uM GlcN6P; higher = faster cleavage; RNA array
In short: as §1

glucosamine-6-phosphate [4] = variants of: B1; assay: self-cleavage kobs at 2500 uM GlcN6P; higher = faster cleavage; RNA array
In short: as §1

glucosamine-6-phosphate [5] = variants of: B1; assay: self-cleavage kobs at 10000 uM GlcN6P; higher = faster cleavage; RNA array
In short: as §1

glucosamine-6-phosphate [6] = variants of: B1; assay: self-cleavage kobs at 40 uM GlcN6P; higher = faster cleavage; RNA array
In short: as §1

glucosamine-6-phosphate [7] = variants of: B1; assay: self-cleavage kobs at 160 uM GlcN6P; higher = faster cleavage; RNA array
In short: as §1

Row | Variant | kcat (glucosamine-6-phosphate [1]) [s⁻¹] | KM (glucosamine-6-phosphate [2]) [µM] | self-cleavage kobs at 640 uM GlcN6P (glucosamine-6-phosphate [3]) [s⁻¹] | self-cleavage kobs at 2500 uM GlcN6P (glucosamine-6-phosphate [4]) [s⁻¹] | self-cleavage kobs at 10000 uM GlcN6P (glucosamine-6-phosphate [5]) [s⁻¹] | self-cleavage kobs at 40 uM GlcN6P (glucosamine-6-phosphate [6]) [s⁻¹] | self-cleavage kobs at 160 uM GlcN6P (glucosamine-6-phosphate [7]) [s⁻¹]
1 | A14U U69A | 0.000113 ± 2e-05 | 802 ± 390 | 5.17e-05 ± 1.1e-05 | 7.13e-05 ± 1.7e-05 | 0.000122 ± 2.4e-05 | – | –
2 | U45C A53U | 0.0028 ± 0.0008 | 4320 ± 1700 | 0.00031 ± 5e-05 | 0.00109 ± 0.00022 | 0.00199 ± 0.00035 | 4.26e-05 ± 1.2e-05 | 0.000117 ± 2.5e-05
3 | A42G U57A | 0.000299 ± 4.6e-05 | – | 0.000118 ± 3.7e-05 | 0.000351 ± 0.00012 | 0.000266 ± 4.4e-05 | < 1e-05 | –
4 | U30G A52U | 6.83e-05 ± 9.4e-06 | – | – | 4.14e-05 ± 1.5e-05 | 5.6e-05 ± 1e-05 | – | –
5 | C10U A53G | 2.78e-05 ± 1.2e-06 | 6420 ± 600 | – | – | 1.69e-05 ± 7.4e-06 | < 1e-05 | –
6 | U46G A53U | 0.006 ± 0.0013 | 2190 ± 770 | 0.00141 ± 0.00032 | 0.00253 ± 0.00059 | 0.00566 ± 0.00098 | 0.000116 ± 2.4e-05 | –
7 | A48C U69C | 7.16e-05 ± 1.1e-05 | – | 6.02e-05 ± 1.9e-05 | 9.22e-05 ± 2.4e-05 | 6.44e-05 ± 1.5e-05 | < 1e-05 | < 1e-05
8 | U47C A48U | 0.000264 ± 3.4e-05 | 1270 ± 340 | 9.41e-05 ± 2.5e-05 | 0.000174 ± 3.2e-05 | – | – | –
9 | A6G A15G | 0.000647 ± 5.3e-05 | 2540 ± 370 | 0.000131 ± 1.7e-05 | 0.000324 ± 4.3e-05 | 0.000514 ± 5.4e-05 | – | 3.49e-05 ± 1.1e-05
10 | U31C G38U | < 1e-05 | – | – | – | < 1e-05 | < 1e-05 | –
11 | G13C U69A | 2.51e-05 ± 9.3e-06 | – | 4.85e-05 ± 2.3e-05 | – | – | – | –
12 | U45G U46C | 0.0148 ± 0.0013 | 3530 ± 440 | 0.0019 ± 0.00046 | 0.00634 ± 0.001 | 0.011 ± 0.0013 | 0.000173 ± 2.8e-05 | 0.00068 ± 0.00013
13 | A39C | 0.00949 ± 0.0017 | 2180 ± 510 | 0.00208 ± 7.2e-05 | 0.00591 ± 0.00018 | 0.00752 ± 0.00019 | 0.000188 ± 3.3e-06 | 0.000491 ± 1.8e-05
14 | A14G G37A U54A | 0.00578 ± 0.0027 | – | 0.000505 ± 0.00013 | 0.00178 ± 0.00043 | 0.00406 ± 0.00062 | 7.89e-05 ± 1.6e-05 | –
15 | C50A C71G | 1.89e-05 ± 5.7e-06 | – | – | – | – | – | –
16 | U65G U69G | 6.55e-05 ± 6.1e-06 | – | 3.94e-05 ± 1.3e-05 | 6.29e-05 ± 1.2e-05 | 6.56e-05 ± 1.1e-05 | – | 4.06e-05 ± 1.8e-05

Row | Variant | kcat (glucosamine-6-phosphate [1]) [s⁻¹] | KM (glucosamine-6-phosphate [2]) [µM] | self-cleavage kobs at 640 uM GlcN6P (glucosamine-6-phosphate [3]) [s⁻¹] | self-cleavage kobs at 2500 uM GlcN6P (glucosamine-6-phosphate [4]) [s⁻¹] | self-cleavage kobs at 10000 uM GlcN6P (glucosamine-6-phosphate [5]) [s⁻¹] | self-cleavage kobs at 40 uM GlcN6P (glucosamine-6-phosphate [6]) [s⁻¹] | self-cleavage kobs at 160 uM GlcN6P (glucosamine-6-phosphate [7]) [s⁻¹]
17 | A14C A64G | 0.00265 ± 0.00066 | 884 ± 370 | 0.000733 ± 0.00024 | 0.00221 ± 0.00047 | 0.00267 ± 0.00068 | 0.000141 ± 3e-05 | 0.000434 ± 0.0002
18 | U46G U47G | 0.00226 ± 0.00039 | 1530 ± 410 | 0.000551 ± 0.00016 | 0.00191 ± 0.00051 | 0.00188 ± 0.00039 | 6.82e-05 ± 2e-05 | 0.000208 ± 5.4e-05
19 | U47C C50G | < 1e-05 | – | < 1e-05 | – | – | – | –
20 | C10A C61G | < 1e-05 | – | – | – | – | – | –
21 | G43U C67G | 0.00171 ± 0.00015 | 1020 ± 150 | 0.000597 ± 8.6e-05 | 0.00117 ± 0.0002 | 0.00166 ± 0.00022 | 7.18e-05 ± 1e-05 | 0.00022 ± 6e-05
22 | A12C C68A | 2.22e-05 ± 4.9e-06 | – | – | 2.42e-05 ± 7.9e-06 | – | < 1e-05 | < 1e-05
23 | U30G G66U | 0.000295 ± 2e-05 | 1760 ± 290 | 8.02e-05 ± 1.2e-05 | 0.000147 ± 3.5e-05 | 0.000256 ± 2.4e-05 | – | –
24 | A15C U65G | 0.00172 ± 0.00056 | 4120 ± 1900 | 0.000252 ± 3.6e-05 | 0.000818 ± 0.00012 | 0.00111 ± 0.00017 | 3.62e-05 ± 1.3e-05 | 4.69e-05 ± 1.1e-05
25 | G40U U49G C71G | 0.000114 ± 2.6e-05 | – | – | 8.01e-05 ± 2.8e-05 | 9.53e-05 ± 1.8e-05 | – | –
26 | C16U G40C | 0.00242 ± 0.00035 | 1020 ± 220 | 0.000837 ± 8.6e-05 | 0.00184 ± 0.00021 | 0.00227 ± 0.00027 | 0.00011 ± 1.1e-05 | 0.000291 ± 3.7e-05
27 | U31C U45A | 0.0175 ± 0.0045 | 3890 ± 1200 | 0.00258 ± 0.00062 | 0.00783 ± 0.0016 | 0.0108 ± 0.004 | 0.000212 ± 6e-05 | 0.000613 ± 0.00012
28 | A6G U69A | < 1e-05 | – | – | – | < 1e-05 | – | < 1e-05
29 | G38C A52G | < 1e-05 | 30.9 ± 14 | – | < 1e-05 | < 1e-05 | – | < 1e-05
30 | A33U U49A C58U | < 1e-05 | – | – | – | – | < 1e-05 | –
31 | U30C G66A | 0.000173 ± 3.1e-05 | 1860 ± 840 | 3.92e-05 ± 1e-05 | 0.000153 ± 3.4e-05 | 0.00014 ± 1.9e-05 | – | –
